# Source: patent WO2017055393A1 (dated 2017)
# T1: human Tim-3 (T cell Immunoglobulin- and Mucin domain-containing molecule 3) (human, UniProt Q8TDQ0 22-301)
# T1 sequence (looked up): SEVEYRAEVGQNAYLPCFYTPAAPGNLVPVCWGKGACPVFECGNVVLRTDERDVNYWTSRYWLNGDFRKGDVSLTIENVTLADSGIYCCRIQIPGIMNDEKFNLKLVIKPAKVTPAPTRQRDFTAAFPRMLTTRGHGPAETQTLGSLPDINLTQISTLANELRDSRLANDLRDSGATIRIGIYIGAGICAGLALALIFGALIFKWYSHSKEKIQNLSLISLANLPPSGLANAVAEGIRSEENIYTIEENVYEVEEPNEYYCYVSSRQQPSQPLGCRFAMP
# Biological target: T1, human Tim-3 (T cell Immunoglobulin- and …)
# Test: cell-based or functional assay
binder,measurement,value
"TIM3 TCB molecule: anti-Tim-3 / anti-CD3 T cell bispecific (TCB) molecule, ""2+1 IgG CrossFab, inverted"" with charge modifications (VH/VL exchange in CD3 … (bispecific antibody) heavy 1: QVTLKESGPGILQPSQTLRLTCSFSGFSLSTSGMSVGWIRQPSGKGLEWLAHIWLNDDVFFNPALKSRLTISKDTSNNQVFLQIASVVTADTATYYCVRANGYLYALDYWGQGTSVTVSSASTKGPSVFPLAPSSKSTSGGTAALGCLVEDYFPEPVTVSWNSGALTSGVHTFPAVLQSSGLYSLSSVVTVPSSSLGTQTYICNVNHKPSNTKVDEKVEPKSCDKTHTCPPCPAPEAAGGPSVFLFPPKPKDTLMISRTPEVTCVVVDVSHEDPEVKFNWYVDGVEVHNAKTKPREEQYNSTYRVVSVLTVLHQDWLNGKEYKCKVSNKALGAPIEKTISKAKGQPREPQVCTLPPSRDELTKNQVSLSCAVKGFYPSDIAVEWESNGQPENNYKTTPPVLDSDGSFFLVSKLTVDKSRWQQGNVFSCSVMHEALHNHYTQKSLSLSP heavy 2: not shown light 1: EVQLLESGGGLVQPGGSLRLSCAASGFTFSTYAMNWVRQAPGKGLEWVSRIRSKYNNYATYYADSVKGRFTISRDDSKNTLYLQMNSLRAEDTAVYYCVRHGNFGNSYVSWFAYWGQGTLVTVSSASVAAPSVFIFPPSDEQLKSGTASVVCLLNNFYPREAKVQWKVDNALQSGNSQESVTEQDSKDSTYSLSSTLTLSKADYEKHKVYACEVTHQGLSSPVTKSFNRGEC light 2: QIVLTQSPAIMSASPGQKVTITCSASSSVNYTQWYQQKLGSSPKLWIYDAFKLAPGVPARFSGSGTGTSYSLTISSMEAEDAASYFCHQWSSYPWTFGGGTKLEIKRTVAAPSVFIFPPSDRKLKSGTASVVCLLNNFYPREAKVQWKVDNALQSGNSQESVTEQDSKDSTYSLSSTLTLSKADYEKHKVYACEVTHQGLSSPVTKSFNRGEC","Cytotoxic activity TCB (LDH), IC50 pM, CMK cells (AML)",300 pM
same,"Cytotoxic activity TCB (LDH), IC50 pM, EOL-1* cells (AML; 24h pre-treated with 10 ng/ml PMA)",300 pM
same,"Cytotoxic activity TCB (LDH), IC50 pM, KG-1 cells (AML)",1000 pM
same,"Cytotoxic activity TCB (LDH), IC50 pM, Karpas-299 cells (NHTCL)",500 pM
same,"Cytotoxic activity TCB (LDH), IC50 pM, Kasumi-1 cells (AML)",3000 pM
same,"Cytotoxic activity TCB (LDH), IC50 pM, Pfeiffer cells (NHBCL)",10 pM
same,"Cytotoxic activity TCB (LDH), IC50 pM, RPMI-8226 cells (MM)",100 pM
same,"Cytotoxic activity TCB (LDH), IC50 pM, SR cells (LCIBL)",100 pM
same,"EC50 of tumor cell lysis, 24 h LDH release, CHO K1 cells stably expressing human TIM-3, thawed expanded T cells, E:T 1:1",0.003 nM
same,"EC50 of tumor cell lysis, 24 h LDH release, Pfeiffer cells, thawed expanded T cells, E:T 1:1",0.06 nM
